Where no end group is shown, it is not given here.
B1: Phage-3028 (peptide)
peptide: DMRRCEPIWMCVGF
B2: Phage-3012 (peptide)
peptide: QWLRCEPEWMCIGF
B3: Phage-3002 (peptide)
peptide: YQLLCKPEWMCVGF
B4: Phage-2992 (peptide)
peptide: YEIRCEPKWMCMGF
B5: Phage-3026 (peptide)
peptide: VDVLCVPSWMCSWL
B6: Phage-3033 (peptide)
peptide: ELLMCRPAWMCDGF
notes: Peptide-180 library clone, tested as clonal phage supernatant (pIII display)
B7: Phage-3024 (peptide)
peptide: IERLCMPMWMCTGL
B8: Phage-2999 (peptide)
peptide: IARMCVPEWMCQEL
B9: Phage-3029 (peptide)
peptide: DSIMCRPAWMCAGF
B10: Phage-2990 (peptide)
peptide: TTIMCEPTWMCTGF
modifications: cysteine pairing not given here; also: peptide displayed as fusion to phage pIII
B11: Phage-3030 (peptide)
peptide: HHQLCKPLWMCEGF
B12: Phage-3027 (peptide)
peptide: VLPVCKPLWMCKGL
B13: Phage-3000 (peptide)
peptide: EIPVCRPAWMCLGL
B14: Phage-3025 (peptide)
peptide: PLVVCKPAWMCIGF
B15: Phage-3022 (peptide)
peptide: DHLMCKPSWMCKGF
B16: Phage-3017 (peptide)
peptide: VQGVCVPSWMCTGF
B17: Phage-3016 (peptide)
peptide: ANVACIPPWMCLGF
B18: Phage-3009 (peptide)
peptide: WWPSCVPEWMCAGL
B19: Phage-2995 (peptide)
peptide: AIAHCIPQWMCSGF
B20: Phage-3005 (peptide)
peptide: ALPMCEPFWMCTGF
B21: Phage-3007 (peptide)
peptide: MYHMCRPSWMCEGF
B22: Phage-3011 (peptide)
peptide: WEPVCKPDWMCNGF
B23: Phage-2998 (peptide)
peptide: VVAHCVPSWMCTGF
B24: Phage-3032 (peptide)
peptide: EGVVCIPEWMCKGF
B25: Phage-3006 (peptide)
peptide: VMVECRPAWMCNGF
B26: Phage-2993 (peptide)
peptide: LAHMCIPAWMCAGL
modifications: cysteine pairing not given here; also: peptide displayed as fusion to phage pIII
B27: Phage-3014 (peptide)
peptide: AELLCVPTWMCMGF
B28: Phage-3008 (peptide)
peptide: SEVMCVPQWMCNGF
B29: Phage-3021 (peptide)
peptide: GGLRCEPMWMCHGF
B30: Phage-3031 (peptide)
peptide: WEILCKPEWMCSGF
B31: Phage-3020 (peptide)
peptide: EEKMCTPQWMCSGF
B32: Phage-2996 (peptide)
peptide: PEALCMPPWMCHGF
B33: Phage-3010 (peptide)
peptide: GMPYCVPEWMCSWL
B34: Phage-3003 (peptide)
peptide: MLPWCVPHWMCDGF
B35: Phage-3015 (peptide)
peptide: PAEWCIPVWMCTGF
B36: Phage-3018 (peptide)
peptide: HEAMCRPTWMCHGF
B37: Phage-3001 (peptide)
peptide: MMPLCMPTWMCEGF
B38: Phage-2991 (peptide)
peptide: FHVRCVPEWMCWGF
B39: Phage-3013 (peptide)
peptide: STMMCVPPWMCMGF
B40: Phage-3004 (peptide)
peptide: VEPMCRPAWMCLGF
B41: Phage-2997 (peptide)
peptide: MSPRCVPMWMCDWL
B42: Phage-2994 (peptide)
peptide: LQSMCRPAWMCTGF
B43: Phage-3023 (peptide)
peptide: TVPKCVPNWMCDWL
B44: Phage-3019 (peptide)
peptide: IESRCVPEWMCYGF

How the values were obtained:
[1] = target: T1, PSMA Fab (006 PSMA Fab); assay: clonal phage ELISA; biotinylated PSMA Fab on neutravidin plate, blocking buffer alone; anti-M13 HRP detection;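 further: crude clonal phage supernatants added without washing to wells pretreated with blocking buffer with or without PSMA antigen, short incubation, then washed before detecting bound phage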
T1 construct: also called Anti-PSMA Fab; anti-PSMA Fab
Experimental: (§1) Clonal phage were harvested as crude supernatants and screened via standard ELISAs. […] Prior to the addition of clonal phage. wells were incubated with blocking buffer and PSMA antigen or blocking buffer alone. Without washing or aspirating, clonal phage supernatants were then added to the wells and incubated for a short time. Wells were then washed followed by detection of bound phage using a horse radish conjugated anti-M13 antibody.

[2] = target: T1, PSMA Fab (006 PSMA Fab); assay: clonal phage ELISA; biotinylated PSMA Fab on neutravidin plate, wells pre-incubated with PSMA antigen (competitor); anti-M13 HRP detection
Experimental: as §1

[3] = target: T2, Anti-PSMA Fab (006 PSMA Fab) (biotinylated (site not stated)); assay: clonal phage ELISA on PSMA Fab pre-incubated with PSMA antigen as competitor, anti-M13 HRP detection
T2 construct: Biotinylated PSMA Fab captured on neutravidin coated plates

[4] = target: T2, Anti-PSMA Fab (006 PSMA Fab); assay: clonal phage ELISA, biotinylated PSMA Fab on neutravidin plates, anti-M13 HRP detection
Experimental: as §1

[5] = target: T3, PSMA Fab (biotinylated (site not stated)); assay: phage ELISA; PSMA Fab on plate pre-incubated with PSMA antigen as competitor, anti-M13 HRP detection;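 further: crude clonal phage supernatants added to Fab-coated wells still holding PSMA antigen in blocking buffer, with bound phage as read-out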
T3 construct: also called Anti-PSMA Fab; 006 PSMA Fab

[6] = target: T3, PSMA Fab; assay: phage ELISA; biotinylated PSMA Fab on neutravidin plate, clonal phage supernatant, anti-M13 HRP detection;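 further: wells preincubated with PSMA antigen in blocking buffer or with blocking buffer only before clonal phage were added for a short incubation, then bound phage detected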
Experimental: as §1

[7] = target: T4, PSMA Fab; assay: clonal phage ELISA on biotinylated PSMA Fab captured on neutravidin, anti-M13 HRP detection;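 further: crude clonal phage supernatants added to wells pretreated with PSMA antigen in blocking buffer or with blocking buffer only, then briefly incubated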
T4 construct: Biotinylated and captured on neutravidin plates in the phage ELISA; also called Anti-PSMA Fab; 006 PSMA Fab
Experimental: as §1

[8] = target: T4, PSMA Fab; assay: clonal phage ELISA on captured PSMA Fab pre-incubated with PSMA antigen (competitor)
Experimental: as §1

Binder	Phage binding ELISA signal, Anti-PSMA Fab [1]	Phage binding ELISA signal, Anti-PSMA Fab in presence of PSMA antigen [2]	Phage binding ELISA signal, Anti-PSMA Fab with PSMA antigen [3]	Phage binding ELISA signal, Anti-PSMA Fab [4]	phage binding ELISA signal (Anti-PSMA Fab, PSMA antigen present) [5]	Phage binding ELISA signal, Anti-PSMA Fab [6]	also measured
B1	2.19	0.0954					
B2			0.212	2.21			
B3					0.0672	2.21	
B4					0.0735	2.22	
B5	2.19	0.0683					
B6							Phage binding ELISA signal, Anti-PSMA Fab [7]: 2.18; Phage binding ELISA signal, Anti-PSMA Fab with PSMA antigen [8]: 0.087
B7	2.19	0.0679					
B8					0.107	2.22	
B9	2.19	0.0945					
B10					0.0683	2.22	
B11	2.19	0.13					
B12	2.19	0.234					
B13					0.0698	2.22	
B14	2.19	0.0979					
B15	2.19	0.0924					
B16			0.0875	2.2			
B17			0.109	2.2			
B18			0.129	2.21			
B19					0.0878	2.22	
B20			0.0628	2.21			
B21			0.142	2.21			
B22			0.08	2.21			

Binder	Phage binding ELISA signal, Anti-PSMA Fab [1]	Phage binding ELISA signal, Anti-PSMA Fab in presence of PSMA antigen [2]	Phage binding ELISA signal, Anti-PSMA Fab with PSMA antigen [3]	Phage binding ELISA signal, Anti-PSMA Fab [4]	phage binding ELISA signal (Anti-PSMA Fab, PSMA antigen present) [5]	Phage binding ELISA signal, Anti-PSMA Fab [6]	also measured
B23					0.0901	2.22	
B24							Phage binding ELISA signal, Anti-PSMA Fab [7]: 2.18; Phage binding ELISA signal, Anti-PSMA Fab with PSMA antigen [8]: 0.0637
B25			0.0636	2.21			
B26					0.104	2.22	
B27			0.0679	2.2			
B28			0.0981	2.21			
B29	2.2	0.122					
B30	2.19	0.105					
B31	2.2	0.0688					
B32					0.0657	2.22	
B33			0.0827	2.21			
B34					0.132	2.21	
B35			0.0732	2.2			
B36	2.2	0.0722					
B37					0.075	2.22	
B38					0.153	2.22	
B39			0.0775	2.21			
B40			0.0882	2.21			
B41					0.0821	2.22	
B42					0.0839	2.22	
B43	2.19	0.0864					
B44	2.2	0.0726					

Reference: patent publication US20260242478A1 (published 2026)
